Assay results taken from patent US20120316071A1 (published 2012).

T1: rHuman Erythropoietin R/Fc Chimera, CF (R&D Systems Cat#963-ER) (human, UniProt P19235 25-250)
T1 construct: Bought Fc chimera; also called EPO R/Fc; EPO R; Fc part of the bought chimera not given
T1 sequence (looked up): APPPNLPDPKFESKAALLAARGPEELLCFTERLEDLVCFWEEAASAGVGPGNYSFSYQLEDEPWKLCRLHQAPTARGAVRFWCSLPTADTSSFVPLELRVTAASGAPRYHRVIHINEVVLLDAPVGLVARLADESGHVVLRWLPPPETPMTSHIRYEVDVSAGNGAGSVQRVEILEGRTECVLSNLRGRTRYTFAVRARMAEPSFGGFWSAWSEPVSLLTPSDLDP

T2: rHuman Erythropoietin R/Fc Chimera, CF (R&D Systems Cat#963-ER) (human, UniProt P19235 25-250)
T2 construct: Bought from R&D Systems; also called EPO R/Fc; Epo R/Fc chimera; not shown: Fc of the bought chimera
T2 sequence (looked up): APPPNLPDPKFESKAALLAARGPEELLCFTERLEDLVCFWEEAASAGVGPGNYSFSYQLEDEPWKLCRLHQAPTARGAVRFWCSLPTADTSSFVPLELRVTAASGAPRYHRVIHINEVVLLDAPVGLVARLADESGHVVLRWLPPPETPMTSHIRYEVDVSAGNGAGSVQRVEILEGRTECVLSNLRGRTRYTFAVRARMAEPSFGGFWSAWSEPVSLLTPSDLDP


What was measured:
[1] = molecular target: T1, rHuman Erythropoietin R/Fc Chimera, CF …; assay: Multispot ECL (MSD) titration; antigen spotted on plate; Fab 58.1 nM; blank spot 225
[2] = molecular target: T3, rHuman CD44/Fc Chimera, CF (R&D Systems Cat#3660-CD) (human, UniProt P16070 21-220); assay: as above
T3 construct: Bought Fc chimera; Fc part of the bought chimera not given

[3] = molecular target: T4, Recombinant Human DLL4 (R&D Systems Cat#1506-D4/CF) (human, UniProt Q9NR61 27-524); assay: as above
T4 construct: Bought recombinant protein; also called delta-like protein 4; rHuman DLL4

[4] = molecular target: T5, rHuman ErbB2/Fc Chimera, CF (R&D Systems Cat#1129-ER) (human, UniProt P04626 23-652); assay: as above
T5 construct: Bought Fc chimera; also called human epidermal growth factor 2 receptor; Fc part of the bought chimera not given

[5] = molecular target: T6, rHuman P-Cadherin/Fc Chimera, CF (R&D Systems Cat#861-PC) (human, UniProt P22223 108-654); assay: as above
T6 construct: Bought Fc chimera; Fc part of the bought chimera not given

[6] = molecular target: T7, rHuman Notch-1/Fc Chimera, CF (R&D Systems Cat#3647-TK) (human, UniProt P46531 19-526); assay: as above
T7 construct: Bought Fc chimera; Fc part of the bought chimera not given

[7] = molecular target: T8, rHuman IGF-1 sR (IGF-1 sR), CF (R&D Systems Cat#391-GR) (human, UniProt P08069 31-932); assay: as above
T8 construct: Bought soluble receptor; also called insulin-like growth factor-1 soluble receptor

[8] = molecular target: T2, rHuman Erythropoietin R/Fc Chimera, CF …; assay: MSD multispot ECL, antigen spotted on plate, Fab 88.1 nM; blank spot 301
[9] = molecular target: T9, rHuman EGF R/Fc Chimera, CF (R&D Systems Cat#344-ER) (human, UniProt P00533 25-645); assay: as above
T9 construct: Bought from R&D Systems; also called epidermal growth factor receptor (EGF R); not shown: Fc of the bought chimera

[10] = molecular target: T10, rHuman ErbB2/Fc Chimera, CF (R&D Systems Cat#1129-ER) (human, UniProt P04626 23-652); assay: as above
T10 construct: Bought from R&D Systems; also called human epidermal growth factor 2 receptor (ErbB2); not shown: Fc of the bought chimera

[11] = molecular target: T11, Recombinant Human DLL4 (R&D Systems Cat#1506-D4/CF) (human, UniProt Q9NR61 27-524); assay: as above
T11 construct: Bought from R&D Systems; also called rHuman DLL4; delta-like protein 4

[12] = molecular target: T12, rHuman Notch-1/Fc Chimera, CF (R&D Systems Cat#3647-TK) (human, UniProt P46531 19-526); assay: as above
T12 construct: Bought from R&D Systems; not shown: Fc of the bought chimera

[13] = molecular target: T2, rHuman Erythropoietin R/Fc Chimera, CF …; assay: MSD multispot ECL, antigen spotted on plate, Fab 352.5 nM; blank spot 494
[14] = molecular target: T13, rHuman IGF-1 sR, (IGF-1 sR), CF (R&D Systems Cat#391-GR) (human, UniProt P08069 31-932); assay: as above
T13 construct: Bought from R&D Systems and called a soluble receptor; also called insulin-like growth factor-1 soluble receptor

[15] = molecular target: T14, rHuman CD44/Fc Chimera, CF (R&D Systems Cat#3660-CD) (human, UniProt P16070 21-220); assay: as above
T14 construct: Bought from R&D Systems; not shown: Fc of the bought chimera

[16] = molecular target: T9, rHuman EGF R/Fc Chimera, CF (R&D …); assay: as above
[17] = molecular target: T10, rHuman ErbB2/Fc Chimera, CF (R&D …); assay: as above
[18] = molecular target: T11, Recombinant Human DLL4 (R&D Systems …); assay: as above
[19] = molecular target: T12, rHuman Notch-1/Fc Chimera, CF (R&D …); assay: as above

ECL signal [1] | ECL signal [2] | ECL signal [3] | ECL signal [4] | ECL signal [5] | ECL signal [6] | ECL signal [7] | ECL signal [8] | ECL signal [9] | ECL signal [10] | ECL signal [11] | ECL signal [12] | ECL signal [13] | ECL signal [14] | ECL signal [15] | ECL signal [16] | ECL signal [17] | ECL signal [18] | ECL signal [19] | Binder
829 | 375 | 1880 | 322 | 478 | 388 | 343 | – | – | – | – | – | – | – | – | – | – | – | – | Fab VH1-46_IGHD6-13*01_IGHJ4*01 & O1_IGKJ1*01 (Fab, V domains shown, Germline library Fab expressed in E. coli; VH was cloned into Plasmid A (CH1 constant region, His6 and Flag tags); The kappa VL was cloned into Plasmid C (kappa CL)) VH: QVQLVQSGAEVKKPGASVKVSCKASGYTFTSYYMHWVRQAPGQGLEWMGIINPSGGSTSYAQKFQGRVTMTRDTSTSTVYMELSSLRSEDTAVYYCAREGYSSSWYDYFDYWGQGTLVTVSS VL: DIVMTQTPLSLPVTPGEPASISCRSSQSLLDSDDGNTYLDWYLQKPGQSPQLLIYTLSYRASGVPDRFSGSGSGTDFTLKISRVEAEDVGVYYCMQRIEFPSWTFGQGTKVEIKR
– | – | – | – | – | – | – | 3370 | 376 | 200 | 434 | 440 | 4100 | 528 | 556 | 769 | 514 | 660 | 715 | Fab VH1-46_IGHD3-10*01_IGHJ4*01 & B3_IGKJ1*01 (Fab, V domains shown, Tested as a Fab made in E. coli; VH was cloned into Plasmid A (CH1 constant region, His6 and Flag tags); The kappa VL was cloned into Plasmid C (kappa CL)) VH: QVQLVQSGAEVKKPGASVKVSCKASGYTFTSYYMHWVRQAPGQGLEWMGIINPSGGSTSYAQKFQGRVTMTRDTSTSTVYMELSSLRSEDTAVYYCAREYYYGSGSYYNDYFDYWGQGTLVTVSS VL: not shown
